{"source": "patent US20140378530A1", "biological_target": "glutathione-S-transferase (GST)-tagged recombinant RARa ligand binding domain (LBD) (UniProt P10276)", "sequence (P10276 183-417 limits assumed)": "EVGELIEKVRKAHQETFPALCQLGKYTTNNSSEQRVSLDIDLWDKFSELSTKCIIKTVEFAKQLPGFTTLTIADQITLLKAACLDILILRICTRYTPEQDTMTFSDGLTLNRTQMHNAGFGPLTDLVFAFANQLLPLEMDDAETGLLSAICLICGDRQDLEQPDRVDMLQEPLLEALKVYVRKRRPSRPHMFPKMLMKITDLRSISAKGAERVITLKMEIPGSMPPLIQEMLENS", "test": "cell-free TR-FRET coactivator recruitment assay; the concentration varied is that of the retinoid Rald, not of either protein"}
{"substance": "fluorescein-labeled coactivator peptide (PGC-1a)", "values": [{"measurement": "EC50 of retinaldehyde (Rald, small-molecule ligand) for recruitment of PGC-1a to RARa", "result": 82, "unit": "nM"}]}
